This is an account of results in patent publication US20090191198A1 (EBERHARD KARLS UNIVERSITAT TUBINGEN, published 2009).

The labels stand for the following.
B1: NKp80-ED tetramers (biotinylated NKp80 ectodomain tetramerized with PE- or APC-labelled streptavidin) (receptor, not shown: large carriers; small tags and cut ends)
chain: QGVLLKCQKGSCSNATQYEDTGDLKVNNGTRRNISNKDLCASRSADQTVLCQSEWLKYQGKCYWFSNEMKSWSDSYVYCLERKSHLLIIHDQLEMAFIQKNLRQLNYVWIGLNFTSLKMTWTWVDGSPIDSKIFFIKGPAKENSCAAIKESKIFSETCSSVFKWICQY
modifications: biotinylated with BirA ligase at the BirA-tag ; Biotinylated by BirA ligase at the BirA-tag. Tetramerized on phycoerythrin- or allophycocyanin-labelled streptavidin (four copies per streptavidin, carrier not in the letters).
notes: Same polypeptide as m1, tetramerized on labelled streptavidin before use; also called sNKp80-ED tetramers

For test [1], the target named is T1, soluble NKp80 ectodomain (NKp80-ED), biotinylated, used soluble or immobilized on streptavidin-coated … (human, UniProt Q9NZS2 64-231, biotinylated with BirA ligase at the BirA-tag ; Biotinylated by BirA ligase at the N-terminal BirA-tag (tag not in the letters). Used soluble or immobilized on streptavidin-coated microspheres. …).
T1 construct: Expressed in 293T cells from pSecTag2/HygroC; also called sNKp80-ED; imNKp80
T1 sequence: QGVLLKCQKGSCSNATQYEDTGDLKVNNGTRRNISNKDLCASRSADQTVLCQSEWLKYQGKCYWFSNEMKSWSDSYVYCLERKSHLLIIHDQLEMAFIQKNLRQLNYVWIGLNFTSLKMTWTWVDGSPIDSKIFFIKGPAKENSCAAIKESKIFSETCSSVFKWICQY
Put plainly: flow cytometry, NKp80-ED tetramers on microsphere-immobilized NKp80-ED. Background: In flow cytometry, cells or beads pass a laser one at a time.

Test [2] concerns the target B1. As to the kind of experiment: flow cytometry, tetramers on U937 cells.

As for B1, the binding result in test [1] is “no binding”.

B2: AICL (Activation-induced C-type Lectin), natural, on myeloid cells (U937, THP-1, monocytes, macrophages, granulocytes) or in their lysates (ligand)
chain: MMTKHKKCFIIVGVLITTNIITLIVKLTRDSQSLCPYDWIGFQNKCYYFSKEEGDWNSSKYNCSTQHADLTIIDNIEETNFLRRYKCSSDHWIGLKMAKNRTGQWVDGATFTKSFGMRGSEGCAYLSDDGAATARCYTERKWICRKRIH
As to B2, the binding result in test [2] is given as “binds”.
